Assay results published in patent US10883116B2, “Transduction buffer” (Koninklijke Nederlandse Akademie van Wetenschappen, priority 2013, dated 2021).
“Also recorded” adds a separate entry of the source.

Assays:
[1] = tested on: KBM7 cells; assay type: cell-based; settings: human, 250 mM
Experimental: (B) BrdU incorporation rate was determined in KBM7 cells incubated with osmocytosis buffer with NDSB-201 or GABA at different time points. Untreated cells were considering as 100% of BrdU incorporation.
Next we optimized the transduction media to allow the transduction of recombinant Cas9. […] For this reason we developed a “Cas9-adapted transduction protocol” (the “fourth protocol”) with a final osmolality of 1250 mOsmol/Kg and a concentration of 250 mM of NDSB-201 (transduction compound #01) or other transduction compounds selected from the FIGS. 7A-7D. We expected that higher osmolalities and NDSBs will induce faster protein transduction but also could possibly increase the cellular toxicity. To characterize this new transduction conditions we measured BrdU incorporation upon high osmolarity (1250 mOsm/Kg) transduction at different short time points, in KBM7 cells.

[2] = tested on: KBM7 cells; assay: CRE recombinase reporter in KBM7 cells, Cas9-adapted transduction buffer; assay type: cell-based, human; settings: 1250 mOsmol/Kg, 250 mM GABA
Experimental: (C) Top panel. Schematic depiction of the CRE recombinase reporter. […] Untransduced cells express Red fluorescent protein. […] Bottom panel. KBM7 cells transduced with CRE protein with osmocytosis media at 1250 mOsmol/Kg with 250 mM GABA (compound #20) during 60 minutes. Upper panels represent fluorescent pictures in green and red channel. Bottom panels represent FACS plots showing in x axes green fluorescence and in y axes red fluorescence or frequency of events. Percentages of events are depicted in the corresponding area.
To further test the duration of the transduction with the modified transduction buffer, we performed a Cre recombinase protein transduction at 1250 mOsmol/Kg and 250 mM GABA at different time points and measured the percentage of cells with successful cre-mediated reporter activation as well as BrdU incorporation as a measure of cell proliferation and survival. Under these conditions, the optimal transduction time based on cell survival and Cre transduction was around 60 minutes. At those time points, one round of Cre protein transduction gave an 80% of GFP positive KBM7 cells. And two subsequent rounds of Cre protein transduction yielded 94% positive KBM7 (FIG. 19C). A second round of protein transduction didn't affect cell survival rate.

[3] = tested on: murine embryonic fibroblasts (MEFs); assay: β-Lactamase protein transduction assay (CCF2-AM), protocol 3/700
Excerpt: To further characterize the protein transduction process we analyzed the effect of time, osmolality, transduction compound concentration and protein concentration on the transduction process. To this end, we set up a β-Lactamase protein transduction assay and measured intracellular β-Lactamase activity using CCF2-AM, an intracellular fluorescent β-Lactamase substrate that changes emission wavelength when cleaved by the enzyme (FIG. 3A). […] While we used the immortalized COS7 cell line in our initial studies, we wanted to know if the compound-mediated protein transduction would also allow the transduction of protein into primary cells. We therefore transduced murine embryonic fibroblasts (MEFs) with β-Lactamase (1 μM final concentration), using NaCl-adjusted hypertonic media (700 mOsm/Kg) and 25 mM NDSB201. β-Lactamase activity was set at 1 at the start of the experiment and relative intracellular β-Lactamase activity was measured as a function of time (FIG. 3B, bars). As a control, β-Lactamase transduction was measured in isotonic media in the presence of 25 mM NSDB201 (FIG. 3B, open circles).
β-lactamase transduction was performed using the 3/700 protocol above in murine embryonic fibroblasts (MEFs). A black, clear-bottom 96 well-plate was coated with 0.15 mg/ml of Poly-D-Lysine for 1 h at room temperature. 12,000 MEFs cells were seeded per well in MEF media without antibiotics. Next day, cells were transduced using the transduction protocol 3/700 as describe above. […] Na- or Rb-salt was added to adjust the final tonicity to 700 mOsm/Kg. […] After 3 hrs., the transduction media was replaced by fresh MEF media for 30 min. Subsequently, cells were washed once with phenol-red-free DMEM. β-lactamase activity was measured using the CCF2-AM kit following the manufacturer's instructions. In brief, 120 μl of CCF2-AM loading media was added per well and cells were incubated for 1 h at room temperature. Cells were washed two times with DMEM phenol-red free and incubated for an additional 30-60 min. Fluorescence emission was measured at […] and 510 nm following manufacturer's instructions. All tests were done in triplicate.

[4] = tested on: GFP-expressing murine embryonic fibroblasts (MEFs); assay: Macropinocytosis mediated uptake of TMR-dextran and BSA, confocal microscopy; assay type: cell-based; settings: 100 μM EIPA 30 min before and during transduction
Experimental: To assess if the transduction buffer would permit the simultaneous transduction of proteins and large molecules, we analyzed macropinocytosis mediated uptake of TMR-dextran (red) and fluorescently labeled BSA protein (cyan) by GFP-expressing murine embryonic fibroblasts (MEFs). In brief, MEFs expressing eGFP protein (green) were incubated with 5 μg/ml of high molecular weight TMR-Dextran (red) and 1 μg of BSA-Alexa-647 (far-red) in 1× transduction media (protocol 700/3) for 30 min. Subsequently, cells were washed twice in 1× transduction buffer. Finally, cells were maintained in 1× transduction buffer and immediately analyzed by confocal microscopy. Dextran and BSA uptake was inhibited by incubating cells with 100 μM Ethylisopropylamiloride (EIPA) 30 min before and during transduction procedure.

[5] = tested on: MEFs cells expressing GAL3-GFP protein; assay: GAL3-GFP macropinosome vesicle leakage reporter assay; settings: 700/3 conditions
Experimental: Schematic representation of the GAL3-GFP reporter assay. Upon initiation of transduction, extracellularly applied protein is taken up into macropinosomes (grey vesicles). […] At the same time, the compromised macropinosome membrane now allows entry of cytosolic GAL3-GFP protein, which binds to—and accumulates at the intra-macropinosome carbohydrates resulting in a bright fluorescent signal (white vesicles). […] GAL3-GFP cells were incubated with transduction media at 700 mOsmol/Kg with or without the macropinocytosis inhibitor EIPA. Untreated cells were included as negative control.
For transduction to occur, proteins that have been taken by macropinocytosis have to be released into the cytosol. […] To test the efficacy of potential transduction compound candidates, we set up an assay to monitor macropinosome vesicle permeation. […] We set up a reporter system in which Galectin-3 protein is fused to GFP (GAL3-GFP). Cytosolic GAL3-GFP protein relocalises to the interior of permeabilized macropinosomes, whereby a multimer complex is formed with intense green fluorescent emission. MEFs cells expressing GAL3-GFP protein were transduced using the 700/3 conditions.

[6] = tested on: human iPSC-derived glial cells and neurons; assay: CRE reporter in human iPSC-derived glial cells and neurons; assay type: cell-based; settings: 5 μM CRE
Excerpt: (§1) A similar strategy of CRE-recombinase mediated red-to-green reporter shift as described above, was utilized to assess the transduction of murine and human neurons, glia and neural stem cells. FIG. 10A depicts a schematic representation of the assay. […] Since the fluorescent reporter construct was introduced into the iPSC-derived glial cells and neurons using lentiviral infection, cells likely incorporated multiple copies of this reporter.

[7] = tested on: murine ESCs; assay: ESC proliferation by cell counting after CRE transduction; assay type: cell-based; settings: with or without Tat-HA2 fusion peptide
Excerpt: Top & bottom graph. After 2 days, transduced (white circle) or untransduced (grey bars) cells were counted every day to make cell proliferation curves.
Untransduced cells were used as a control.

[8] = tested on: murine embryonic stem cells (mESCs); assay: CRE recombinase Lox-Stop-Lox-eGFP reporter, flow cytometry
Excerpt: To explore protein transduction of murine embryonic stem cells in more detail, we used a transgenic mESC line in which a CRE-recombinase inducible reporter was stably integrated in the ColA1 locus^2. […] Next we tested whether protein transduction affected ESC proliferation. After two rounds of CRE-protein transduction, the doubly transduced cells in FIG. 8B were trypsinized, seeded onto MEFs feeders, and cell proliferation was monitored by cell counting. Untransduced cells were used as a control. […] Next we explored the expression of key pluripotency factors in the double transduced mESCs by qRTPCR. […] To test the pluripotency of the transduced mESCs, double-transduced GFP+ ESCs from the experiment in FIG. 8B were injected into host blastocyst embryos and transplanted into pseudopregnant foster mice.

[9] = tested on: murine neurospheres; assay: CRE reporter in murine neurospheres; assay type: cell-based; settings: CRE protein transduction, protocol 12/500
Excerpt: as §1
Neurospheres were transferred to a 96 well plate with 80 μl of the neuronal stem cells media. Right after, 20 μl of CRE in 5× Transduction buffer was added to cell and mixed carefully.

[10] = tested on: human induced pluripotent stem cells (iPSCs); assay: CRE recombinase dsRed-to-eGFP reporter, flow cytometry

In the case of `NCCCC(=O)O` [Compound #20, gamma-aminobutyric acid], the “cell survival (BrdU incorporation) in KBM7” value [1] is reported as “much better survival than NDSB-201”, the “optimal transduction time based on cell survival and Cre transduction” value [2] is reported as “around 60 minutes” and the “β-lactamase transduction activity when combined with reference compound #01 (reference set at 100%)” value ([3]; equimolar with NDSB201 (#01), 12.5 mM each, total 25 mM, 3 hours, 700 mOsm/Kg) is reported as “largely unchanged”.

With `CCN(c1nc(N)c(C(=O)N=C(N)N)nc1Cl)C(C)C` [EIPA, 5-(N-ethyl N-isopropyl)-amiloride, reference compound] the “effect on Dextran and BSA transduction” value [4] was “inhibited”, the “Gal3-GFP localisation to macropinocytic vesicles (vesicle leakage)” value [5] was “did not relocalize to vesicles” and the “effect on protein transduction in the presence of FGF and PDGF” value ([3]; 700 mOsm/Kg, 25 mM NDSB201) was “completely blocked protein transduction”. The “effect of endocytic pathway inhibitor on protein transduction” value ([3]; 3 hours, 1 μM β-lactamase, 700 mOsm/Kg NaCl, 25 mM NDSB201) was “strongly inhibited; also recorded: completely inhibits protein transduction”.

B1: CRE protein: recombinant CRE recombinase protein (protein, UniProt P06956 1-343, looked up)
Recombinase cre: MSNLLTVHQNLPALPVDATSDEVRKNLMDMFRDRQAFSEHTWKMLLSVCRSWAAWCKLNNRKWFPAEPEDVRDYLLYLQARGLAVKTIQQHLGQLNMLHRRSGLPRPSDSNAVSLVMRRIRKENVDAGERAKQALAFERTDFDQVRSLMENSDRCQDIRNLAFLGIAYNTLLRIAEIARIRVKDISRTDGGRMLIHIGRTKTLVSTAGVEKALSLGVTKLVERWISVSGVADDPNNYLFCRVRKNGVAAPSATSQLSTRALEGIFEATHRLIYGAKDDSGQRYLAWSGHSARVGAARDMARAGVSIPEIMQAGGWTNVNIVMNYIRNLDSETGAMVRLLEDGD
In the case of B1, the eGFP reporter activation [6] is reported as “efficient activation of the eGFP reporter”, the “GFP positive KBM7 cells” value ([2]; one round, around 60 minutes) is reported as 80% and the “positive KBM7” value ([2]; two subsequent rounds) is reported as 94%. The “ESC proliferation after two rounds of CRE protein transduction” value [7] was “did not affect ESC proliferation”, the “GFP+ ESCs” value ([8]; 5 μM CRE, two sequential rounds, 12 hrs each at 500 mOsm/Kg with glycerol and glycine) was 79% and the “GFP-positive mESCs” value ([8]; Okada method (hypertonic/hypotonic), 5 μM CRE-recombinase protein) was 6%. The eGFP reporter activation [9] was “efficient activation of the eGFP reporter”, the “cells shifted to eGFP expression” value ([10]; 5 μM CRE protein, 12 hours at 500 mOsm/Kg, single transduction) was 64% and the eGFP cells ([10]; double CRE protein transduction, without Tat-HA2 fusion peptide) was 78%.
